Experiment in all cases: SPR, antibody captured, C2 as analyte;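 further: biacore SPR at 37 °C, anti-C2 mAbs captured via goat anti-human IgG on CM5 chips, double-referenced sensorgrams fit to a 1:1 kinetic or steady-state model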
In one experiment the target is T1, human C2 K274A (human, UniProt P06681 21-752).
T1 sequence: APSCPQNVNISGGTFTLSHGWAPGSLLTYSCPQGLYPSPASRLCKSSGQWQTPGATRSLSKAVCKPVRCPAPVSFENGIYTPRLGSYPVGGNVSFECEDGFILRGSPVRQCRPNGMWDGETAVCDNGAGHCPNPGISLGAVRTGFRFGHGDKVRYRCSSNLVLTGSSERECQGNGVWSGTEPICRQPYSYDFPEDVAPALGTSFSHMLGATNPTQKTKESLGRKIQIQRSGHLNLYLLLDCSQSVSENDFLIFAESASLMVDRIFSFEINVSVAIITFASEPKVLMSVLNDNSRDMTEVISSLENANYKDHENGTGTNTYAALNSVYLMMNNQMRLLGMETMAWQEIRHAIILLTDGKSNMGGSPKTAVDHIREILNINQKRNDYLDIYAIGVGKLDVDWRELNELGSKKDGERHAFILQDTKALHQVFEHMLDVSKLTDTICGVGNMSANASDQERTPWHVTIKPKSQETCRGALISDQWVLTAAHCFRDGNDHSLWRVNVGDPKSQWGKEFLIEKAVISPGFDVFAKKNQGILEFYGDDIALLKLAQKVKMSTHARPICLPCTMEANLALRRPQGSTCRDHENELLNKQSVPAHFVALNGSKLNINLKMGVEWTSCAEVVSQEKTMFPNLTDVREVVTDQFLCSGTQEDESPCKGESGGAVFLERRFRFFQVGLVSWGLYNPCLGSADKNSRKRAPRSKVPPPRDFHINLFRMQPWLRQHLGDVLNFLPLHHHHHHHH

The target in the next experiment is T2, human C2 S713A (human, UniProt P06681 21-752).
T2 sequence: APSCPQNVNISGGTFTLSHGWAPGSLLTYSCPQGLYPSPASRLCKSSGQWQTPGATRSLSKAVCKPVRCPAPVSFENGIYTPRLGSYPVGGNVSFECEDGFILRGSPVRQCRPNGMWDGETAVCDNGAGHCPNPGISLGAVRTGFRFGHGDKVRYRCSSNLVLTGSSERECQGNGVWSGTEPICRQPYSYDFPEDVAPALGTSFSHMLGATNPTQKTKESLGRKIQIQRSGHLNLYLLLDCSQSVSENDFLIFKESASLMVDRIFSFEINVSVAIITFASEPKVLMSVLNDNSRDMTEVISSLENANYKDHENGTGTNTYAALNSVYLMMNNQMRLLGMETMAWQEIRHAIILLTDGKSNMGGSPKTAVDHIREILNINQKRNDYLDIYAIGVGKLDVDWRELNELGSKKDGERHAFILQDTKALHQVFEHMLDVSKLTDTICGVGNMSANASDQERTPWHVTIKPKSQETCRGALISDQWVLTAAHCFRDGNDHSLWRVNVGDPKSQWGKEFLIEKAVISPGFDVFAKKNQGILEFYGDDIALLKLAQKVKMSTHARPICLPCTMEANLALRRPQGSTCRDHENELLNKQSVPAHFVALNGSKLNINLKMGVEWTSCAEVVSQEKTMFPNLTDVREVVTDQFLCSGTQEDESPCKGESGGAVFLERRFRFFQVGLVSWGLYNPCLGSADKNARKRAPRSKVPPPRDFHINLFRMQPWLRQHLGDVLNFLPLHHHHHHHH

In a further experiment the target is T3, human C2 E490A (human, UniProt P06681 21-752).
T3 sequence: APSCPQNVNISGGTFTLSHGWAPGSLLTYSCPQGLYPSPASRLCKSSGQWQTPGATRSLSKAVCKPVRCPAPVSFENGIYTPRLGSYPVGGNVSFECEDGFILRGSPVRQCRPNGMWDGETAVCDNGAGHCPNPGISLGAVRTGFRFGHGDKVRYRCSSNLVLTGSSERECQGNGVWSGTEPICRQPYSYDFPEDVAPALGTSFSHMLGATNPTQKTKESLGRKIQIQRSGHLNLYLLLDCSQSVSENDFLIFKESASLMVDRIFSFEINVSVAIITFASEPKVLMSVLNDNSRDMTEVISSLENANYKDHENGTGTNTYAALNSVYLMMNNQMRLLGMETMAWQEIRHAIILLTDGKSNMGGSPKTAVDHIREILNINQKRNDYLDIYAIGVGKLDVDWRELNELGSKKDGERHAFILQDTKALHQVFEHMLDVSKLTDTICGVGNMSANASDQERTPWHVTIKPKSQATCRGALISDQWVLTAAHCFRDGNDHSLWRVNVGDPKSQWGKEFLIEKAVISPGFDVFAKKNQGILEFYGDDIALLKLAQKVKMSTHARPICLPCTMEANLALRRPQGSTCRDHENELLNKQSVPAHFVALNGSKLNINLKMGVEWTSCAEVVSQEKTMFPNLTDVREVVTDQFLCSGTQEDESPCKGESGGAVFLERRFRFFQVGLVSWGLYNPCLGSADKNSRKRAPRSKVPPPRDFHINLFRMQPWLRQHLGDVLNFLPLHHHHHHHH

Another experiment concerns the target T4, human C2 K531A (human, UniProt P06681 21-752).
T4 sequence: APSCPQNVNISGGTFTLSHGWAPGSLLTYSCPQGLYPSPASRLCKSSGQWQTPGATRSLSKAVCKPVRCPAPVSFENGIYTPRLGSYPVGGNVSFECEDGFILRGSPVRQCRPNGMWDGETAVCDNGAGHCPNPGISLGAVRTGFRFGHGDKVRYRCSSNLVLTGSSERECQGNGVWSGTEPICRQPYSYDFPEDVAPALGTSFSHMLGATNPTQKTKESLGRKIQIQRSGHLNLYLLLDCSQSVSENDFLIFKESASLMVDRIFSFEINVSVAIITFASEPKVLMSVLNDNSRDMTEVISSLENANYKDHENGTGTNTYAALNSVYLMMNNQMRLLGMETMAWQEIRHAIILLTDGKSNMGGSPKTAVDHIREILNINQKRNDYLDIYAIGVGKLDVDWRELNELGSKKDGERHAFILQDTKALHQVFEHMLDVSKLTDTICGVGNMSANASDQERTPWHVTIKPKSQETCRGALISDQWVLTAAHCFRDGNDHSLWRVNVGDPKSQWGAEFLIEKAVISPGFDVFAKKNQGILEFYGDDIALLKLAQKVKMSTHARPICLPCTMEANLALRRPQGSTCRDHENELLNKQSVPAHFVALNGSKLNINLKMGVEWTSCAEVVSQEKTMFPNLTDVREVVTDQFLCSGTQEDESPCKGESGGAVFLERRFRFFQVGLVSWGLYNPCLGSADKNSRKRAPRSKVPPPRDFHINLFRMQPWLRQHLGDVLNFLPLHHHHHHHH

B1: RF16-226 (antibody, human IgG4 S228P, lambda)
heavy: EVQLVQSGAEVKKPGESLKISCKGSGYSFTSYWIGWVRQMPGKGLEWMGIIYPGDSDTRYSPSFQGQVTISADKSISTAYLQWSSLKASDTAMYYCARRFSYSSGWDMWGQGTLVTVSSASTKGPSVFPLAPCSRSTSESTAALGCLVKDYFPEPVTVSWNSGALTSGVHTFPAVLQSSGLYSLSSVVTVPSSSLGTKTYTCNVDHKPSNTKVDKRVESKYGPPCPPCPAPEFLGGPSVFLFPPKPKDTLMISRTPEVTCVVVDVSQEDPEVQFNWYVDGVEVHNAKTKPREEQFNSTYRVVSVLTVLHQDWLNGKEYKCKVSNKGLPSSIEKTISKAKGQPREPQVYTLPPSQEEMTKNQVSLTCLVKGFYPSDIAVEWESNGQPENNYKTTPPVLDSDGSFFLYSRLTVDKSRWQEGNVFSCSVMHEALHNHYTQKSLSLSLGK
light: SYELTQPPSVSVSPGQTARITCSGDALTSKYVAWYQQKSGLAPLLVIYEDTRRPSGIPAKFSGSSSGSVATLTISGAHGDDEADYYCYSTDASGHQRVFGGGTKLTVLSQPKAAPSVTLFPPSSEELQANKATLVCLISDFYPGAVTVAWKADGSPVKAGVETTKPSKQSNNKYAASSYLSLTPEQWKSHRSYSCQVTHEGSTVEKTVAPTECS
notes: pH-dependent anti-C2 antibody from a phage display library; also called WT
On to B1, for which the Kd with human C2 K274A amounted to 291 nM; with human C2 S713A it was 19 nM; in the experiment with human C2 E490A it was 15.6 nM; with human C2 K531A it was 12.1 nM.
